In the DeepSol protein solubility set:

assay: soluble on expression in E. coli; label from the status in PepcDB or PDB records

| Sequence | soluble on expression in E. coli |
| --- | --- |
| MGSDKIHHHHHHMQFADFWYIVALSNQLQPNKVLPRTVLGEWLAIFRGEDGQPVALRDRCLHRNSRLSSGKICNGALQCPYHGWVYDGVGNVIAVPAEGNDFKPSPQRRAKCYATKEQDGYVYVRLADTPSVDFEPFSMPHYGQTGWETVRVINRFANNVTNCAENFIDIPHTAFVHPGVFRTSRQQKLEMTVERWNGSVLVEYRNENSNLGWYSRFLNLQSAEIKHSDRFYMPNITSVEYKMARNRHLFITSQSIPETDNSTLVYTDVTYNYGIWNKLARPFVRWTAQHIIRQDVEILGIQGEAIAKYGTQFYNTPADTIHIFVESIMAAISRGEDPRLLPNQSVKVTFWV | not soluble |
| MGSDKIHHHHHHMQFLYNKQAGEEFIQLQGENFNHLKVRRVKENSELNLRNLQDNFLYNYTITNLTRNSCTLKFLNKKSQNIKQSELNLALAIIDIKILEKTLPFLNELGVKKLHLVFTNFSQRNFKIDLERFEKIIISSCEQCGRNTKMDLIIHQSTQEFVQKFPNAIMVDFQGEQQSHFDEKELYFIGPEGGFNNDERLLFNRKISLKSSNILKSQTAIIAIASKILL | not soluble |
| MGSDKIHHHHHHMQHHKVAIIGAGAAGIGMAITLKDFGITDVIILEKGTVGHSFKHWPKSTRTITPSFTSNGFGMPDMNAISMDTSPAFTFNEEHISGETYAEYLQVVANHYELNIFENTVVTNISADDAYYTIATTTETYHADYIFVATGDYNFPKKPFKYGIHYSEIEDFDNFNKGQYVVIGGNESGFDAAYQLAKNGSDIALYTSTTGLNDPDADPSVRLSPYTRQRLGNVIKQGARIEMNVHYTVKDIDFNNGQYHISFDSGQSVHTPHEPILATGFDATKNPIVQQLFVTTNQDIKLTTHDESTRYPNIFMIGATVENDNAKLCYIYKFRARFAVLAHLLTQREGLPAKQEVIENYQKNQMYLDDYSCCEVSCTC | not soluble |
| MGSDKIHHHHHHMQIDKQQVGNRIHQLRIAAGLSMAKLASAIGLAGKSTINDWEKGRTLANADRLAKVAAYFDVSTNYLLYGSLTEYVTAVFQNGGLNHSEFNVLLWEYVDLTTTNPNILSSDLFSSASQTEQGVSDPTKIAAALITPTINNAIRQIVPEIVQHYQQTTTYPEPQAVIQAGCYVFRHRIQIIRRTFTGKYNRIVRLLDNVDLYEKLQPDDDLKAYLNQTTGPKTQVQNGYSLDEKYQRQMNKVITEFHQALNRINDAYQAELMACGQGQAHSAAD | not soluble |
| MGSDKIHHHHHHMQIDQIETFLDLLETQSFNRTADRLDVTQSTVSGRVKALEKALGERLFERSRSGTQPTTAALRFETHARVLRRAWADGQADVKPFGTAVMLRIGIQHDLIDNHVADWLAALRQALPECGFYVDGDYSTQMCRDLETGALDLGVVFTPRPSPDLYFESMGEVTYQMVSTAQTSLPQIDPTNYILPNYAPAFAQTHAALLPGLSLGSVSSGQAAAVRGLLIALGGTTYLPTEMVSALITEGIAHHVPGAPDITQPVFVAMHLRNRHRAGYRRMANVLRDRVGT | not soluble |
| MGSDKIHHHHHHMQIDSSILGALRCFEAAGRLLSFTKAAESLNLTQSAVSQQIRHLEDRLGYVLFVRQPRSLKLTPQGEVLFETTTRALHDIQQTIQRLGMPNAPLQVNCLPSFALQWLMPRLTDFHREQPDVSVRLKAEFQALDRQSMDTEDIDVAVRYDPVRYSRLHADVLLDEYLIPVATPEYLAEHRELAEGTSLDGVVLLHDASPWVGAAEFVEWRTWLEAFHPTWMAHLEGPQFNLSSLAISAALNHQGVAMGRTALVYDEIRSGRLVNVFRQHVRAPARYMLLSRNPDDRRVTIFSAWLKAECARFDAMRMETLSRDR | not soluble |
| MGSDKIHHHHHHMQISFISHEYPPVSGGGSTALHEYASGLATRGHAVQVVTVGTGAHDTVDTEDGVQVVRLAAGRKSLLAPSKAELIRSCAALRLKSMPHLRRHEPEVLVAFFAFPAGFLAAPLAAKLNIPLVVSLRGSDVPGFSAKRLGVFGPLLPYLFRRATRHAAAVVPNGRRLADMAAPYLHTGSRVQVIPNGVDTLRFAPQGAEHGSMGGPLRVLFVGQMIARKQCLVLAQALHEVAARGVPLQVSFAGSGPLEQDIRRIVSSLDPVVGVTFTGHVPRNAIADLYGAHDVLVHLSQAEGVSNVLMEALSSGLCLVAADTAVDAAIDGVPRQAPAEDGGIILLPVDCGPVVLGATLAGLACNRSLVEEQQRLARRTALKNSWQVRVGELEDLLTGSIAGCQAS | not soluble |
| MGSDKIHHHHHHMQKESIYGLTREQLVDWFLAHGEKKFRATQVWEWLYTKRVASFSEMSNISKSLMTLLEENFSLNPLKQVIVQEAQDGTVKYLFELPDKNMIETVLMRQEYGLSVCVTTQVGCNIGCTFCASGLLKKQRDLTAGEIVAQIMWVQHYFDERGLDERVSHVVVMGIGEPFDNYANVMNFLRTINDDKGLAIGARHITVSTSGLVPKIREFADSGLQVNLAISLHAPNNEVRTSIMRINRSFPIEKLMAAIDEYIEKTNRRVTFEYIMLSQVNDRPEHAQQLADLLRNKKKLSYVNLIPYNPVSEHDQYSRSSKEAVLKFYDVLKKNGINCVIRKEHGTDIDAACGQLRSKQMKKEKVKNQ | not soluble |
| MGSDKIHHHHHHMQKLMHCSIMDLRLLVAVADAGNMSKGGAVCFLAPSTASLRIKHLEAIVGTRLFRREARGVSLTRAGQIMVDHSRRCLTEIEQMQASLTPFSEDVHAQLVLYANSSAIASFLPGDLQGFLQSHPKARITLEEHLSRDVLVAVVEGRADIGILTKDEPHPDLVYFPYHEDEIVLLLAETQPWTKTEPVAFLDCLSFPFVSQQNGSAIHSFLLAKASEQGRRVDVRIQVAGFAAVASMVRSGVGVAIVPRSALAAINVEGLRVVALSDAWARRTLSLCVRRDVLGSRNYVTALVDVLRQSGDQAGVADSA | not soluble |
| MGSDKIHHHHHHMQKLVEQVWDYTKHAKFYSYRPNYAPKTIDMLISLVGKKDIKVADIGAGTGNLSIMLLERGCKVVSVEPNDAMREIGIERTKDQKIDWVRATGLNSTLQNSEFDWVTFGSSFNVMDRNEALEEAHRLLKSEGYFSCMWNHRDLNDPVQKIAEDTIVEFVPNYTRGTRREDQRPIIESRKDLFDNIVYIEEDFYFHQSIENYINAWKSVKNPYWDLETDEGNELFNKISNKISQRLPKEFSIKYTTRCWSAKKI | not soluble |
| MGSDKIHHHHHHMQKRNELPGHLAVAPFTLDSARASGVSRARLRRKDVVHVGRGLYRPSDWNFELEAAARALSTASPGAWISHVTAARLHCQLLPPWLADSTELHLSKPRALPSVRRSGVIGHTVVALEDEIESIDGLRVSTRSRTWLDLARRLPVSDLVCMGDQLIRVPRVAFEGRTRPYDTLDGLRTLVGRHPNLQGVVRAREALHLMRVGADSAPESLLRLAMADAGLPEPELQLALRPTDAVSPTADLGYRHRRLAIQYDGEHHLLDAQIFSDRRRDKAFESAGWTVLILGKDDLADGCRPAVSKIKRLLRTAWLDHPQASGFADAG | not soluble |
| MGSDKIHHHHHHMQNPRRICVADPNHRLSQKRFTRNSRDIFICPDCGCIMADVDFDHDQYESGDYYTMQHKTVQSIEEVWGFRWRYILDQILKINGRSSLLDVGAGNGYFVALASREFSFDASGLEISQEEVQFAADVLNIGLIREDLTQHNLDYDVVTCLNVLEHVVDPQLFLSHLVNRVKPGGLLVITTPNPACIHRKVKGLKNWNMIAPPHHINLFTKESLYILLMRYGLIQLDYQTISTYVNFVRGFDTENLLLRRLFFNLLKIFDLGADHFFIVKKPSQC | not soluble |
| MGSDKIHHHHHHMQPLAFRMRPRTIEEIVGQQHLVGPGKIIDRMVKAKLLSSMILYGPPGTGKTSIASAISGSTKYAFRILNAATDSKKDLQIVAEEAKMSGTVILLLDEIHRLDKTKQDFLLPHLENGNIILIGATTENPYININPAIRSRTQIFEVKPLQPDEIKKAVLAAIKDSSRGLGELPIVIDEDALKFVSESTNGDLRSALNAVELAARSTGPDENQKIHLTLAILEECLQKRALTQDKDGDAHYDVISAFQKSIRGSDTDAALHYMARLLESGDLQSVIRRLLIIAYEDIGLANPPACQRTVSAVTAAEHVGLPEARIPLADAVIELCVSPKSNSGISAIDNALTDVRTGKIGEVPDHLRDSHYKGAAALGRGVDYKYPHNYPNDWIAQQYLPDKLVDAAYFDAKGNSTYEEKIKNRYESLKKSQRSNH | not soluble |
| MGSDKIHHHHHHMQPNPTLDQLQIFVAVADSGSFSAAGRKLNRAQSVISYGIANLEAQLGLKLFEREGTREPQLTEIGRSMLEDARRMIGVLQRMRSRVDGHHHGLEAEVALSVDAALPSPVLVRVLKAFEAQFPTVMLRLHIGSLGLIPDHVVSGQADLGIGGLLGDVDVHLVRIGFMSIVLAAAPSHPLALLPKPLAIEDVREHTQLVVTDQSERTKGRDFGVFAYRTWRLTDMRTKHMLMREGLGWGGLPRWLIADDLVNGRLVELDLEPFSEVKSPMFAMHRNDSSPKPAAAWLIERFKRGLGCFNEFEPGEVPEDEPETIRQSAP | not soluble |
| MGSDKIHHHHHHMQRSPIRRSNYTPRNEKGLEGVIELQLNVVSDYLHVGSGKYDVEVMRSVSDVKRLVEDYLSGGNKRIPNNVDQYFSMVAFLMVRNKDNVVIPGSTIKGMVRSRLELSVPGSCYIVTGHSTSSSAVYKRIFNPDPNRGSDRFDVNKFPQVCPVCDLLGNMGLASRVSLSDFVMTSGKVDYVNVKGRDYEVVTKGSIFAGKVLYKSLKPVEIGMLLYGFGFVKDCNGSKVMLLGRFKFSDKRFGRVKFSLKTPIADCNKLVSDFVKQFNPRYINEEW | not soluble |
| MGSDKIHHHHHHMQRVRQICVVGGSGFVGSALVHRLSTAGYDVKVLTRRRESSKHLILLPNVQVTECDVFNEASLSGQLHGQDAVINLAGILHESGNATFESIHVDLATRIADICCKQGVPRLLHMSALKASADAKSAYLRSKAAGEQAVLRRADELQVTVFRPSVIFGRGDHFLSMLANVVNMMPVVAVAKPNAKFQPIWVEDVAYVFLTALENVSTYGRSIDLGGPQVYTLKQLIELTALLLGKKRRIVSLNDKLSYYQAYALELMPFKLMTRDNLLSMEVDSVCDGPISEFFGHSLASLEAIAPEYIAGETPRSAYERFRSLAGRTFSRR | not soluble |
| MGSDKIHHHHHHMQSKIAEAIKLGNQPVAVMRSDAKPEGAMQFKEGRWGCAISLLNMAAKGQVAVFANSTTTCSGGKVGLGFRQFELGFIEHFLSVGGVGGREGEFYKKNPELAGKFALELPKVTAKEYIIFKPLSELKADETPEGIIFLANADQISALTVLANYDRPTQDNVKVNFGAGCHQTVLFTLDQVDKDEDHCFIGLTDPSARKFIDKDILSFSMTYKRFLELEEQVEESFLTKETWLKVAERI | not soluble |
| MGSDKIHHHHHHMQTFHELEQTQSVIATILRNSLQTNRINHAYIFTGDYEPLLLEAAQLFAKSLFCERRDQIEPCQTCRSCRRMDSGNLVDYYQIEPDGATIKKEQIQELMHDLSLRGLEGDRQIYVVTQSHKMTPQAANSLLKFFEEPGAGKVAILITNQPQLLLPTIRSRGQLLSFRPADRLLIGQVLSEKTGRDNELTQLAARVYPKIEDAEQALVEDWFVNARVSVLQLMEELANRPADLPLFVQEKWMSQFKNRQDARIGLELVTCFFEDVLHLKLNPSWETITYANSRPLLEQMGGKSQTTITRWLQAVLAAVKRIEANVNPQLTVERLMFDLQKG | not soluble |
